Source: FireProtDB (doi:10.1110/ps.8.12.2645)

Conditions: Saccharomyces cerevisiae (strain ATCC 204508 / S288c), pH 6, Thermal, DSC, Sodium phosphate 0.1 M, reversible: yes

Cytochrome c isoform 1 F88Y, P00044, sequence (P00044 whole entry F88Y, canonical isoform): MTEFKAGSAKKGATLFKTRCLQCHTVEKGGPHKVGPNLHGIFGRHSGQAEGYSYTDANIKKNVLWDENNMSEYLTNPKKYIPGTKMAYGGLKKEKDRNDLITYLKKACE
Cytochrome c isoform 1 L91A, P00044, sequence (P00044 whole entry L91A, canonical isoform): as the sequence (P00044 whole entry F88Y, canonical isoform) above, with Y88F, L91A counted along it
Cytochrome c isoform 1 F88Y|L91A, P00044 F88Y L91A, sequence (P00044 whole entry F88Y/L91A, canonical isoform): as the sequence (P00044 whole entry F88Y, canonical isoform) above, with L91A counted along it
Cytochrome c isoform 1 wild type, P00044, sequence (P00044 whole entry, canonical isoform): as the sequence (P00044 whole entry F88Y, canonical isoform) above, with Y88F counted along it

Substance	ddG of mutation (higher = less stable) (25 °C, structure 1YCC) [kcal/mol]	heat capacity change of unfolding (25 °C, structure 1YCC) [kcal/mol/K]	unfolding enthalpy (calorimetric) (25 °C, structure 1YCC) [kcal/mol]	unfolding free energy (25 °C, structure 1YCC) [kcal/mol]	unfolding enthalpy (calorimetric) (60 °C, structure 1YCC) [kcal/mol]	unfolding free energy (60 °C, structure 1YCC) [kcal/mol]	Tm (structure 1YCC) [°C]	heat capacity change of unfolding (structure 1YCC) [kcal/mol/K]	unfolding enthalpy (calorimetric) (structure 1YCC) [kcal/mol]	unfolding enthalpy (van 't Hoff) (structure 1YCC) [kcal/mol]	heat capacity change of unfolding (25 °C) [kcal/mol/K]	unfolding enthalpy (calorimetric) (25 °C) [kcal/mol]	unfolding free energy (25 °C) [kcal/mol]	unfolding enthalpy (calorimetric) (60 °C) [kcal/mol]	Tm [°C]	heat capacity change of unfolding [kcal/mol/K]	unfolding enthalpy (calorimetric) [kcal/mol]	unfolding enthalpy (van 't Hoff) [kcal/mol]
Cytochrome c isoform 1 F88Y, P00044	0.7	0.58	27	4.8	83	1.01	55.8	0.58	76	103	–	–	–	–	–	–	–	–
Cytochrome c isoform 1 wild type, P00044	–	–	–	–	–	–	–	–	–	–	0.26	26	5.5	81	60	0.26	81	110
Cytochrome c isoform 1 L91A, P00044	2.8	0.45	23	2.7	79	2.9	46.3	0.45	57	88	–	–	–	–	–	–	–	–
Cytochrome c isoform 1 F88Y|L91A, P00044 F88Y L91A	–	–	–	–	80	–	45.6	0.31	57	92	–	–	–	–	–	–	–	–
